{"source": "paper PMC11109965", "about": "“Correction of non-random mutational biases along a linear bacterial chromosome by the mismatch repair endonuclease NucS” (Nucleic Acids Research, 2024)", "key": {"[1]": {"biological_target": "the molecule itself", "experiment": "SEC + SEC-MALS; purified His-tagged β-clampSam; gel filtration (single peak, about 97 kDa) and SEC-MALS (about 84 kDa)"}, "[2]": {"biological_target": "the molecule itself", "experiment": "SEC-MALS; fractions of the main gel filtration peak of NucSSam; molecular weights determined on the right side of the peaks because peak homogeneity was moderate"}}, "data": [{"protein": "β-clamp from Streptomyces ambofaciens (β-clampSam), N-terminal His-tagged (natural protein) MKIRVERDVLAEAVAWAARSLPARPPAPVLAGLLLKAEEGQLSLSSFDYEVSARVSVEAEVEEEGTVLVSGRLLADISRALPNRPVEISTDGVRATVVCGSSRFTLHTLPVEEYPALPQMPEATGTVPGEVFAAAVQQVAIAAGRDDTLPVLTGVRIEIEGDSVTLASTDRYRFAVREFLWKPENPEVSAVALVPAKTLQDTAKALTSGDQVILALAGSGAGEGLIGFEGAGRRTTTRLLEGDLPKYKTLFPTEFNSIAVIETAPFVEAVKRVALVAERNTPVRLSFEQGVLILEAGSSDDAQAVERVDAQLEGDDISIAFNPTFLLDGLSAIDSPVAQLSFTTSTKPALLSGKPAVDAEADEAYKYLIMPVRLSG", "values": [{"measurement": "stoichiometry N", "setting": "[1]", "value": 2}]}, {"protein": "NucS from Streptomyces ambofaciens (NucSSam), N-terminal His-tagged (enzyme, Streptomyces ambofaciens ATCC23877, UniProt A0ABN4PBG3 1-223, looked up, 223 amino acids; calculated molecular weight 24762.44 Da; Found as monomer and dimer in solution, the monomer prevailing; the monomeric fraction was used in the cleavage assays; also called EndoMS/NucS; His-tagged NucSSam; not shown: His-tag, N-terminal, kept) MRLVIARCSVDYAGRLTAHLPSAPRLILVKADGSVSIHADDRAYKPLNWMSPPCTLKEGTGEEEGVWTVVNKAGEKLIITMEEILHDSSHELGVDPGLIKDGVEAHLQELLADRIETLGEGYTLIRREYMTAIGPVDILCRDAEGRTVAVEIKRRGEIDGVEQLTRYLELLNRDPHLAPVRGVFAAQEIKPQARVLATDRGIGCQVLDYNAMRGIEDDKLRLF", "values": [{"measurement": "stoichiometry N", "setting": "[2]", "value": 2}]}]}
